Columns and labels:
[1] = target: Tenebrio molitor α-amylase (Tenebrio molitor) (UniProt P56634)
[2] = target: human salivary α-amylase (human) (UniProt P0DUB6)
[3] = target: porcine pancreatic α-amylase (porcine) (UniProt P00690)
Chain of UniProt P00690 (P00690 16-511): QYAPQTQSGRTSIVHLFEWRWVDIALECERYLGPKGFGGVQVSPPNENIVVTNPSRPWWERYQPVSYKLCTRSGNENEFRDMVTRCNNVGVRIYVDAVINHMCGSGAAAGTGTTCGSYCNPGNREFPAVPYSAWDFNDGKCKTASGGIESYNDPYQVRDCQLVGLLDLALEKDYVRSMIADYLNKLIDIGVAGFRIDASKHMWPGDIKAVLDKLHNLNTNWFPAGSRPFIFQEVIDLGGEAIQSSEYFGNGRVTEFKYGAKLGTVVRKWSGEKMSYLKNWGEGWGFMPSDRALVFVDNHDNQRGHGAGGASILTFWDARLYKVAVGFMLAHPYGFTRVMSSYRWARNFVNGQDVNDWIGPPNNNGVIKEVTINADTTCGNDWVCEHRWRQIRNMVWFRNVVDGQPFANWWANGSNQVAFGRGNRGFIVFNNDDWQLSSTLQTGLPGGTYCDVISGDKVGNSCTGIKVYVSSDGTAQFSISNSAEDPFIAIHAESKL

Chain of UniProt P0DUB6 (P0DUB6 16-511): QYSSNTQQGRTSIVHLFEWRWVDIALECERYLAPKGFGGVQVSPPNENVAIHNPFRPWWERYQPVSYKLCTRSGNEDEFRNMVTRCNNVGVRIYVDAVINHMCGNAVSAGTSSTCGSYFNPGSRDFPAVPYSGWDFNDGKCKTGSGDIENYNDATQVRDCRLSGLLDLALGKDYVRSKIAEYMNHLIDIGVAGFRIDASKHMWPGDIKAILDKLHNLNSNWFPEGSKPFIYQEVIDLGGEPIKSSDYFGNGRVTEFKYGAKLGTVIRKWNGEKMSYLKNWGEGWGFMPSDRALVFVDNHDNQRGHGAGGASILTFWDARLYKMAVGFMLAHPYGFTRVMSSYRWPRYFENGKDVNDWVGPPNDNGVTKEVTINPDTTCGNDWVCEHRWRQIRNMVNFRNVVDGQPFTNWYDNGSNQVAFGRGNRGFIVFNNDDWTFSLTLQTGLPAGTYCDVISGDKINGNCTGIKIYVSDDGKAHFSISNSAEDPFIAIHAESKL
Chain of UniProt P56634 (P56634 whole entry): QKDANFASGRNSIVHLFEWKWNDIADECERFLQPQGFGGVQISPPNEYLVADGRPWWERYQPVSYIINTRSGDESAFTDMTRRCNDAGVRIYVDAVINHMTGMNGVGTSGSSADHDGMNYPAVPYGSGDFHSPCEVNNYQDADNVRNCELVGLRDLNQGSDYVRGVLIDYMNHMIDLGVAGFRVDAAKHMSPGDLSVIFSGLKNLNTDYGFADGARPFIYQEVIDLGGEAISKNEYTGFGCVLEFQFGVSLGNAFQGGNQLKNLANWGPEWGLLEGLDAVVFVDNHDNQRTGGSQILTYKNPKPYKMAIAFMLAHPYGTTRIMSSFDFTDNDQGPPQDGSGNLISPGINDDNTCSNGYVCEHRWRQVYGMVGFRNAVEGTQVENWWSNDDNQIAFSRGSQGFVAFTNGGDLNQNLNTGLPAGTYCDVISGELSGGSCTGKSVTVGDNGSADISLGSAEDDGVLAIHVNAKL

Row | Substance | inhibition of T. molitor α-amylase activity (starch hydrolysis, DNS reagent; fraction at 50 μg/mL, 37 °C, 30 min; relative to 5 mM EDTA as 100% inhibition) [1] [%] | inhibition of human salivary α-amylase activity (starch hydrolysis, DNS reagent; fraction at 50 μg/mL, 37 °C, 30 min; relative to 5 mM EDTA as 100% inhibition) [2] [%] | inhibition of porcine pancreatic α-amylase activity (starch hydrolysis, DNS reagent; fraction at 50 μg/mL, 37 °C, 30 min; relative to 5 mM EDTA as 100% inhibition) [3] [%]
1 | subfraction R1 of fraction P10 (lipid transfer protein, Capsicum chinense seeds) | 55 | 91 | 84
2 | subfraction R2 of fraction P10 (lipid transfer protein, Capsicum chinense seeds) | 72 | 85 | 81
3 | LTP-rich fraction P10 from Capsicum chinense seeds | 98 | 93 | 89
4 | subfraction R3 of fraction P10 (lipid transfer protein, Capsicum chinense seeds) | 93 | 92 | 80
